Molecular target: T1, HLA-DR15 (DRB1*15:02) (human)
T1 construct: whole, on cells; Expressed on mouse fibroblast L-cells (L-DR15) or on donor APCs; also called L-DR15
Assay: concluded from IFN-gamma ELISPOT with peptide-pulsed L-DR15 cells and HLA-blocking mAbs; no direct binding assay
Description: The immune response of Th cells to APCs pulsed with peptides and proteins were assessed by IFN-gamma ELISPOT assays (Human IFN-gamma ELISPOT kit, BD Biosciences) as described previously (Tomita Y, et al. Cancer Sci; 102: 697-705.). Briefly, the frequency of peptide-specific CD4⁺ T cells producing IFN-gamma per 3×10⁴ bulk CD4⁺ T cells upon stimulation with peptide-pulsed PBMCs (3×10⁴), or 1×10⁴ bulk CD4⁺ T cells upon stimulation with peptide-pulsed L-cells (5×10⁴/well) expressing HLA-DR was analyzed. The frequency of cells producing IFN-gamma per 1×10⁵ CTLs upon stimulation with peptide-pulsed T2 cells (2×10⁴/well) or C1R-A2402 cells (2×10⁴/well) was also analyzed. Alternatively, 5×10³ protein-loaded DCs were co-cultured with 2×10⁴ CD4⁺ T cell clones/well. The protein-loaded mature DCs were prepared from positively isolated CD14⁺ cells (day 0) as described previously (Harao M, et al. Int J Cancer 2008; 123: 2616-25.). On day 5, the DCs were cultured in the presence of the recombinant KIF20A (50 micro-g/ml) and OK432. The protein-loaded mature DCs were harvested on day 7, washed and used as stimulator in IFN-gamma ELISPOT assays. […]

B1: KIF20A (60-84) (peptide)
peptide: DSMEKVKVYLRVRPLLPSELERQED
notes: Synthetic long peptide (purity >90%), pulsed on PBMCs, DCs or L-cell transfectants; also called KIF20A (60-84) LP; KIF20A (60-84) peptide
- binding result: binds
